{"source": "patent US11066655B2", "about": "“RNA polymerase, methods of purification and methods of use” (President and Fellows of Harvard College, priority 2013, dated 2021)", "molecules": {"B1": {"name": "Syn5 RNAP: single subunit DNA-dependent RNA polymerase from marine cyanophage Syn5, amino acid sequence SEQ ID NO:23 (protein)", "chain": "MSFDLIARQLQRETEAAELARKRLQDARREANERSYASSNIESRKAIATFLDPIAQRIGERLFTLRRGTGAVDAAEVYKHLKNADHHHLALITMKTALDVLGKDPEPQIQQLTTAIGRNIQLELRLTYYAEENPELYKQASRFFHAGTGTRQKATVIKLKFNREGIEWDQWSRVTCHKVGQWLMLAMADVTGWIERATDRTSGGRKTKTRICYSREFLQHRDTILAAAEQLAFCQWPMLCPPIEWSNDHNGGYLSEQIRRVNPLIRKTGPLGTRKQGDIPLAMLNNLQGQAYKVNPEVLDIANHCYESNVTVGKFIRHAPLPVPPSPGEDCTEDQLTAYKRARREAEDFNAQISQKNWRTTEVMYVARKYADEASFWMPASFDYRGRVYFLNTALNPQGTDFDKALLYFAEEGPVNEWWLSFHVATTYGLDKETMVNRVQWARDNHELIDRIASDPVRHTEWHDADEPWCFLAACLEYKACVIDGTKQTSGLPIGIDATCSGLQHLAAMTRCGRTAALVNVTPTDKPADAYKTVAQASLKHLPKEQHEWITRKVTKRPVMCTPYGVTMSSARGYIRDQLVKDGHKEDLRSPGVLNGIVKAIFNEAIPEVIPGPVQVMAWLKRSAGQIIDRGDSTITWTTPSGFEVVQDLKKSKTYEVKTRIMGGARIKLQVGDGFTDEPDRDHHKSALAPNVVHSNDASLLHLTFAFWDKPFTVIHDCVLGRSCDMDQMGSDIRLHFAEMYKADVMQDWADQVGVELPVDLIKNTLDIDSVNQSLYFFS", "modifications": "Amino acid sequence of a cyanophage Syn5 RNAP"}}, "key": {"[1]": {"test_system": "dsDNA template (1, 2 or 3)", "test": "Incorporation of 2′-F-dNTP into RNA by wild-type Syn5 RNA polymerase (Mg buffer)", "type": "biochemical", "description": "FIG. 24 depicts gels showing incorporation of 2′-F-dNTP into RNA using WT Syn5 RNA polymerase.\nAccording to certain aspects of the invention, wild-type Syn5 RNA polymerase was used in methods described herein for high yield 2′-F RNA synthesis, with DNA templates that allow incorporation of fewer than three 2′-F-dNTP into the first 12 nt of a full-length transcript and in a non-consecutive manner. Transcription initiation (synthesis of 2-12 nt RNA) can be the most unstable stage for an RNA polymerase. Once transcripts are extended over 12 nt, transcription elongation is robust and stable. To determine whether the incorporation of 2′-F-dNTP during the transcription initiation stage is a rate-limiting step of Syn5 RNA polymerase, Syn5 RNA polymerase transcription in the presence of 2′-F-dNTPs on DNA templates that allow various amounts of 2′-F-dNTP incorporation into the first 12 nt of the RNA products was compared. The following conditions were used.\nThe reaction components were incubated at 37° C. for 4 hrs. Then 0.4 µl of the reaction mixture were loaded onto 10% TBE gel and stained with ethidium bromide. […] See FIG. 1. lane 1 vs 2; 8 vs 7; 15 vs 14. […] Template 1 has also 3Gs but two of them are consecutive. […] See FIG. 1. lane 10 vs 7; lane 17 vs 14). […] Although there are only 2 Cs in the 1-12 nt region of template 1, two consecutive incorporations during the initiation stage prevented the efficient synthesis of RNA products containing 2′-F-dCMP. With template 3 starting with C, 2′-F-dCTP was still efficiently incorporated."}, "plasmid pET24-S5 RNAP": {"test_system": "plasmid pET24-S5 RNAP", "test": "Incorporation of AMP by RNA polymerases from the improved purification", "type": "biochemical", "method": "FIGS. 8A-8B depict RNA polymerases described further herein. A) SDS-PAGE gel of Syn5 RNA polymerase purified as previously reported (S50, 18), newly purified Syn5 RNA polymerase using Ni-NTA chromatography in the presence of 2 M NaCl (S5N1), newly purified Syn5 RNA polymerase purified using Ni-NTA and gel filtration chromatography in the presence of 2 M NaCl (S5N2), and T7 RNA polymerase. B) Incorporation of AMP at RT by 50 nM RNA polymerases shown in A). A plasmid with both a Syn5 and T7 promoter was used as template for transcription.\nReactions for FIG. 8B contained 40 mM Tris-HCl pH 8.0, 2 mM spermidine, 10 mM DTT, 200 µM[…] GTP, C[…]P, UTP and ^3H-ATP (20 cpm/pmole), 1.5 U/µl RNaseOUT™, 50 nM Syn5 or T7 RNAP and 4 nM plasmid pET24-S5 RNAP. Reaction mixtures were incubated at room temperature (RT, ˜24° C.). After various times the reactions were stopped by the addition of 20 mM EDTA. 4 µl of the mixtures were then loaded onto Whatman DE81 filter paper disks and the disks were washed to remove the unincorporated ^3H-ATP. The amount of insoluble ^3H-AMP, corresponding to nucleotides incorporated into newly synthesized RNA, was measured using a scintillation counter. The data were analyzed using Prism software."}, "[2]": {"test": "Solubility / precipitation of the purified enzyme", "type": "physicochemical", "details": "transcription reaction", "method": "His-tagged Syn5 RNAP was expressed from a pET24 vector harboring His-tagged Syn5 RNAP gene between the NdeI and NotI sites (Zhu et al. (2013)) and purified by Ni-NTA agarose and gel filtration chromatography. 2 M NaCl was present during the purification procedure and was removed by dialysis as the protein was finally concentrated. E. coli BL21(DE3) cells over-producing the protein were cultured in 2 L LB medium containing 50 µg/ml kanamycin at 37° C. until they reached an OD600 of approximately 1.2. The gene for Syn5 RNAP was induced by the addition of 0.5 mM IPTG at 16° C. and incubation continued for 3 hr. Cells were harvested, resuspended in 50 mM sodium phosphate, pH 8.0, 100 mM NaCl, and lysed by three cycles of freeze-thaw in the presence of 0.5 mg/ml lysozyme. 2 M NaCl was then added to the lysed cells and the cleared lysate was collected by centrifugation. 2 ml Ni-NTA agarose was added to the clear lysate and mixed at 4° C. overnight. The resin was then washed with 30 ml of wash buffer (50 mM sodium phosphate, pH 8.0, 2 M NaCl, and 20 mM imidazole). […] Fractions were analyzed on SDS-PAGE gels and those with Syn5 RNAP over 80% were collected and concentrated with Amicon Ultra-15 Centrifugal Filter Units (Millipore) to 1 ml. […] Fractions were analyzed on SDS-PAGE gels and those with homogenous Syn5 RNAP were pooled. […]"}}}
{"molecule": "B1", "values": [{"measurement": "full-length products containing 2′-F-dUMP", "setting": "[1]; template 1 and 3", "value": "low yield"}, {"measurement": "incorporation of 2′-F-dUTP", "setting": "[1]; template 2", "value": "efficient incorporation"}, {"measurement": "incorporation of 2′-F-dCTP", "setting": "[1]; template 2 and 3", "value": "incorporated very well"}, {"measurement": "full-length transcript with ATP replaced by 2′-F-dATP", "setting": "[1]; templates 1, 2, 3", "value": "none of them produces full-length transcript"}, {"measurement": "discrimination against 2′-F-dCTP", "setting": "[1]; transcription elongation", "value": "no intrinsic discrimination against 2′-F-dCTP"}, {"measurement": "activity of enzyme purified by Ni-NTA and gel filtration", "setting": "plasmid pET24-S5 RNAP; 50 nM RNAP, RT", "value": "close to that of T7 RNAP"}, {"measurement": "increase of specific activity by improved purification (2 M NaCl)", "setting": "plasmid pET24-S5 RNAP; versus previous three-step purification", "value": 2, "unit": "fold"}, {"measurement": "final concentration in the reaction resulting in severe protein precipitation", "setting": "[2]", "value": "over 5 µM"}]}
